Here are results for 16 sequences from a protein production outcome set (Wang et al. 2014).

A short description of this data set: label from the status in PepcDB records.
In the case of “MYIVIAGGGEMGGELARALEKTHDVVVIDRNPQARERFASWDVKVVVGGATDPDTLREAGVDRADLFVASTDSDEINLLASLLAKGLGAKEAFCFVGKGGYVEVLTDPRTAEILGTRIDRVLWPQRAMAREIVEVILVPWAVDTEVLAGGRLRFVEYRVKEGGEYVHRLLSGEKWPEGVLLAGVVREGTFLSFAHPEFPELILEPGDKLLFVATQKAFSELAAYFTEGPGVRRVMVIGGGNVGFMVAQGLLKRRVEVVIVERNAERCQWLSEELPGALVIQGDGTDIELLEAEGMAEADAVVAVTDHDEKNLLASLLAKQMGVRKVITRVSRSETRRLFEQVGIDLALTPRQAAVREVLDWIGPENVEHIATLEESIEVLEVLVSEGAAPKALRDLVRPDAVPVALERDHRIFLYEEGLGLLPGDRLYLVAAREVADEVLAPFFPE”, the protein production entry is “failed”.
Regarding “MQKEKAPIGLYFLLIAVMASWGFNVTMTKVLVSYFPTVTMTSFRIFTAAITVIIILFITKKLRLPTKREFGLIFLASIFNIVIHHFFLSNGLKLTTGTNAGLILGSAPIVVAIFSVVFLRERIGAWRALGFLAGIFGVSLVVLSNGTGISGISLGDIDIFIAMASQAFSFIIIKKLAGSMDTGLMTGYMLFLGSVMLFALSRFMEPGGVSELVAVHSWKLWLLFVVSAVVATAFGNFVYNYAVGKIGPSRSAIFMNFNPLFSLIGALLFLGEAIKIPQLVGFVFIIIGVLLGSGALMDLIYERKKTKVRDPEKLLEKEV”, the protein production result is listed as “failed”.
As for “TAYIIVGLTPKDAEKLQQYGARVASTLAKYSGEVLVKGSVEQLHGKFEHKAQVILEFPSREDAYNWYHSEEYQALISTRDLGMDSQFQLIG”, the protein production result is “not failed”.
In the case of “ATEEFIIRIPPYHYIHVLDQNSNVSRVEVGPKTYIRQDNERVLFAPMRMVTVPPRHYCTVANPVSRDAQGLVLFDVTGQVRLRHADLEIRLAQDPFPLYPGEVLEKDITP” it was “failed”; in that of “PLLIFPPWINKFYIMDLRPENSMIRWLTAQGFTVFVASWVNPDQTLAAKTFEDYMVEGIYDAAQQVMTQCGVDRVNTVGYCIGGTLLSVALAHMAARGDKRINSATFFAAQQDFAEAGDLLLFTNEEWLQSIEQQMDQAGGFLPSQSMADTFNALRGNDLIWSFFVSNYLMGKEPRPFDLLFWNADQTRMPKALHLFYLRNFYKDNALTTGKLSLGGERLDLSKVKIPIYVQSSKDDHIAPYRSVYRGARAFGGPVTFTMAGSGHI”, “failed”.
The entry for “MRPTARNLAPLLAVLCAPPALLAGCGHAEPRPRAAAQDRDGLSALWSYYRYTHVQGGRVAALDEGGVTTSEGQGYAMLRAVWMDDRATLDAVWRWTRENLAVREDRLLAWRWLDGKVKDRNAATDADQDVALALVLASRRFGDPRYLEAARPLLADIWAREVIRAGGRWLPTGGNWAPAERYPTLHVAYLAPYAYQVFADVDPERPWAELVESSYQVLRFLMIEKGLALPPERIWVDPRTGELLLARPGGQPDAFGYDAVPVYWRVALDARWFGRRGEAELRARLLRFPAEAFRDEGRLRERYTTSGRPLSELDGLPHLASVQALAQLEDPELARAMRASKLDALFDRALSGEATPYYLHNWLWFGRALEAGLLRRFDEPLAFLSSLDWGAFRDRFPLLPVALAVVLAPLARRLWPARAALVALALGLSIRYLAWRAGSTLNFVEPLGPALSLALLAAEAYALSTVALLVVQVGLRHRARPPEPPLGAGEPHPSVDVMVPIYSEPLDILDKTLAACAALRYPRKTIVVCDDSHREEVARLAAEHGARYLAGPRRHAKAGNLNAALARTDGELVVVFDTDHVPTAAFLERTVPCFRDPRLGVVQTPHHFYNPDVFQRALGAPASVPNEADLFNHAIQGGRDRWGGAFFVGSGAVFRREALASVGGFHLLSITEDIHTSQKLHAGGWRTRFVDEDLAAGLSAEDLASYVVQRRRWMLGCLQIFFRDNPLLQRGLPLRHRLGYLASLWYFFFPLARLVFFATPLAYLLFHLHPLFAELPVLLAYLVPHLVAAPLAASALVPGWPRLLWGGLYEGAVAFPLARATLDLLLPRRLGFKVTPKGVRSERRRFDLRTSAFTLAAAAVGLLAIAKGAAELWAFGIEVEAYAFNLAWAGANLVSVLLALLVAWERPQRREDERIRRRVPVRLEAPGLSLEASTLDLARGGAAVALPPGAALPAEVEVTFDGPEGLRLRARVAYVEPVDGAPRAGLAFQGVGAAEARALVRIAFSADGAHAGAHDGRSRWQAAMAWHLLAGLWRAVRPLRPRRRLGARRRTLRPLRLCGAGRACRALAVDASAGGLGLVAAGARGAIPAPGTALALLAPEGIGWARVVHARRILPGLWRLGLALQAEPVPGAEPHAYLAA” is “failed”; for “MSSILSDTAPRFLADYRPADFTINTVNLTIHLDDTCSQVVSELTIERKGDVQQALQLNGEHLTLVSLVLDNQALSKDQYQINETLLIIPASSLPDRSHFTLIITTEINPQENTALEGLFKSGDAFCTQCEAEGFRRISYYLDRPDVMATFTTKVIADKNLYPYLLSNGNKVASGELSDNKHFVTWHDPFPKPCYLFALVAGNFDLLEDNFTTASGREVALEIFVDEGNLAKAEHAMTSLQKSMAWDEETFGLEYDLDIYMIVAVDFFNMGAMENKGLNVFNSKYVLADSHCATDSDYFNIEAVIAHEYFHNWTGNRVTCRDWFQLSLKEGLTVFRDQQFSAQMHSSAVTRIQNVRVLRSQQFAEDAGPMAHPIRPEKVLEMNNFYTLTVYEKGSEVIRMLHTLIGVDKFRQGMDLYFSRFDGMAVTCDDFINAMSDASGKDLAQFKLWYSQSGTPVIKAQEMFDSQTNIYTLTLLQQSPITKNQQNPQALHIPIKVELISDNNNEASQSELLELTQTEQSWQFSGFTSKPTLAMLADFSAPVKLIFDQNNTSLLTIMQQADNSFCRWDAGQKLLMSYLHQLTFDIDYTIPNELINAINDMLNSGGDRAFIAEQLSLPSFDEAASLMVDIDPIALTNAITTLATFIARGTQQQLLVSYKACQHEDLKDNAVANRALKNVCLSYLSLLPEYQYLVTQQYQQATNNDDILKENMTDSLAALTCSSKNNLDDLNEQLEHFENKWQQTTLVMDKWFALNASVVSEDVFTQLANLLEHPQFSLKNPNRARSLIGAFAMNNPKYFHCPTGRGYQFLADQIAKLNEINPQVASRLITPLIQFKSFAPAHQKLMKAELVKLQALTNLSNDLKEKLDAALND” it is “failed”.
As for “MSKPAITLWSDAHFFSPYVLSAWVALQEKGLSFHIKTIDLDSGEHLQPTWQGYGQTRRVPLLQIDDFELSESSAIAEYLEDRFAPPTWERIYPLDLENRARARQIQAWLRSDLMPIREERPTDVVFAGAKKAPLTAEGKASAEKLFAMAEHLLVLGQPNLFGEWCIADTDLALMINRLVLHGDEVPERLVDYATFQWQRASVQRFIALSAKQSG”, the protein production entry is recorded as “not failed”.
Take “MPVLLSRLASRTNPSLANRCAMDTWLRSAIDYISSWIEFQQTTIQQPGVIVAFAHRGEVVAEHAFGVANLDTGEKLTPRHRCRIASHSKSFTSAGIMKLREQRKLRLDDSVGQYVGGLHPRVAETTIAQLLSHSAGLTRDGADSGQFIDRRPYLNAEELLAELKLPTAIEPGTRFKYSNHGFGLLGLVIEAVTKEPYTAWIKREIIEPAGLRETEPDAPLPKGAAFARGHTRKVPLGERCVIPGDNPTHAMASATGFAATAADTARFFAQLAPNARKSVLSVASRREMTRHHWRIPQSFEAYYGLGIGAGKLDGWDWLGHGGHFQGYISRTCAIPACELAISIISNSIDGAAPFWMDGAMQILRTFKTRGAPDRRVRDWTGRWWTIWGATDLVPMGDRVLIANPQFNNPFMDAGEIEVTGRDTGRIAAAAGHSSHGEPVRRVRDARGKVSDIWLAGANVKPASVVAREIARQYPPRKRRPTP”: the protein production entry is recorded as “failed”.
The entry for “MVKGDITTAFIAEEYPDGFQGAVLDEPTLRRVAAAAAAMNRVAEIRRTRISGTMNNHERHVGVDWVVALQGESYHVSIAADREGSTVSFSDGSSLRVTSDWTPGQPLEHHHHHH” is “failed”.
The entry for “MGILDRFEKGLENVVNGAFAKAFRSQVEPVELAGALRREADNKAAVVSRGRTLTANHYSIELSPTDFDRLSGLENELRSDLRQVIGDHAVEQAYSFVGPVSVEFVEAEDLDTGMYRVVSSTQRPDGSPAAQPANRGGYDPVSRSHNIVGEGQANSGSRPVPPRRTPEPAPARPAATSRPASAPVRQAAPARSRTISASVTIHGQDYELHQGTNVFGRSSSSSDYVIDDPGVSRRHFEITVERDHAVANDLGSTNGTLLRGRKLTSANLSDGDVLMAGDAEVRYHENEQDAQ” is “failed”.
In the case of “MDIDASSCPELYARRAYGAEMTSQHQNTPSSEQIRRAPKVLLHDHLDGGLRPGTIVELARDAGYSGLPETDPDKLGIWFREAADSGSLERYLETFAHTCAVMQTRAALVRVAAECAEDLAADGVVYAEVRYAPEQHLEAGLSLEEVVEAVNEGFRAGERRAKEDGNRIRVGALLTAMRHAARALEIAELANRYRDAGVVGFDIAGAEAGFPPTRHLDAFEYLKRENNHFTIHAGEAFGLPSIWQALQWCGADRLGHGVRIIDDIQVREDGSVKLGRLASYVRDKRIPLELCPSSNLQTGAASSYADHPIGLLRRLHFRATVNTDNRLMSGTSMSREFEHLVDAFGYTLDDMAWFSVNAMKSAFIPFDERLAMINDVIKPGYAELKSEWLFKQTASTSSSAASEE” it was “not failed”; in that of “MSRAYTGALSYPQKIVIILLNKISSQHLKGDIFGGLTAAVIALPLALAFGVSSGAGAIAGVYGAIFVGFFAALFGGTATQISGPTGPMSVVMALVFTQLIGSHPDTGLVLAFTCVILAGLFQILFGLLKLGKYFVMVPYPVISGFMTGIGIIIILLQISPLLGSAGDSNALAALMNIPNALSQQNTLATVLGVITLLLMIYWPEKWTKIIPAPLFALITLTVISATFFSQQGISVIGEIPTGFPSLSMPSLSLESLSQVSYFAFLLAVLGAIDSLLTSMVADTLTETHHDSDKELIGQGIANTIAGFFGALPGAGATMRTAINIRAGGKTALSGIIHSITLLIVILWAGDYAQYIPHTVLAGMLIKVGLDIIDWRFIFQIKKVGLFSATLMLLVLLLTVFVDLITAVLVGMFIANLVTLDRLTHIQLDNITFKRGDELLSEISSNETNIALTDDIQNNLSKSLANTLLLEIDGPVSFAVSRELSRRFTENLAFTTLVIDLSNAKLIGTTTAIMITDLIDRTKSKEKTVLVITGNEKINQSLDKLSLATLLDKKYQFTNREQALQTLI”, “failed”; in that of “TPLLAILFIAQVSGSGRRVGVVGWPDLNYAGVLGYGGCYERIFAVPQQERTSLRVVTALAHGCDLVITRAGPTPRTYTPLQTQRFRNSLRSDAGCVIMMGDHVVSPAARLASAVVGYHGIGKGTGRIKAVEITVTGIAKGFYRTSRVIVGKHIAPAAEKTTMK”, “failed”.
As to “MELKMKTRALVIGLGSMGKRRVRNLLALGNIDVFGFDVRADRNEEASSKYQITTFDDVQKAFEDVKPEVVVISTPPQLHMTYANMCFDARVPCFIEASVTDIEEIRELGKKALEASLVIAPSCTMRYFPGPKKVKELLEQNVIGSPLSVNYQTGQYLPDWHPWEDIQDFYVSKRESGGAREIVPFELTWLNDLFSHDVKALASAVAKQTDMNADIDDIYHCLLQYDSGVLLNLTVEVISRPLATREMLILGSKGKIKFSADSNSVSYCNLETDGWVESTWEEGTVESQYINPEEPYINEMKDFVTAALAGDQSLFPNNLQDDVKVLEVLEALEEVDQLKGNKA”, the protein production entry is listed as “failed”.
In the case of “MANGPGCACPRCGAPRASGPECPRCGVIYAKARARAAPSPAPSGPGTSLPDPGAAGLALGMPARARWSGELDGARRELWIRAVAPPAALLLALALVSSGPGHALLRTFLSMWIHELGHAVTAWLCGHGAFPGPWRTPISSGRLPLVVIAVSGALAALAWRGWRSGRRAILAAGAAGLGVQLVCTLLPATTARALITFGGDAGCMVIGAALVATIWADPEGPLGRGSLRWGFLVIGAAALVDALHGWVRAWRDPGELPLGEIEGVGLSDASTLMQVHRWSASALSGRYVALGLACLAALGATYAVMLARARGAVAAERRAA” it was “failed”.
